The values below come from article PMC3797041 (PLoS ONE, 2013).

The assay concerns the target T1, Staphylococcal enterotoxin B (Staphylococcus aureus, strain , UniProt P01552).
T1 construct: source: bought: Toxin Technologies
Description: SPR. The settings on record: both partners purified.

T1 sequence (P01552 28-266): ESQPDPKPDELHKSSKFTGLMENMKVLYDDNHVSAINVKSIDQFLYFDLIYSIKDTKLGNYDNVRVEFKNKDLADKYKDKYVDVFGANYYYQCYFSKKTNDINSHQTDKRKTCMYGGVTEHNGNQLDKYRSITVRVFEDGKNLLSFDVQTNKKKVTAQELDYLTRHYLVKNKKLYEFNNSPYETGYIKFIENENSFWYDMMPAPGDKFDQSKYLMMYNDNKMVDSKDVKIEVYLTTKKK

B1: hybrid AAD (VHH)
VHH: EVQLVESGGGLVQAGDSLRLSCTASGRTFSRAVMGWFRQAPGKEREFVAAISAAPGTAYYAFYADSVRGRFSISADSAKNTVYLQMNSLKPEDTAVYYCAADTWNSVVTGTAADWGQGTQVTVSS
As to B1, the Kd came out at 12 nM.

B2: hybrid construct D1A3 (VHH)
VHH: EVQLQASGGGLVQPGGSLRLACQYSGRTFSRAVMGWFRQSPGKEREFVAAISAAPGTAYYAFYADSVRGRFTTSSDNFKKTAYLQMNGLKPEDTALYYCTEDLKMQVAAYMNQRSVDYWSQGTQVTVSS
Molecule B2 yielded a Kd of 0.56 nM.

B3: hybrid antibody C8A3 (VHH)
VHH: EVQLQASGGGLVQGGDSLRLSCAASGRTFSRAVMGWFRQAPGKEREFVSAISAAPGTAYYAFYADSVRGRFTISRDNAKNAVYLQMNSLKPEDTAVYYCAVDLKMQVAAYMNQRSVDYWGQGTQVTVSS
Regarding B3, the Kd is 2.7 nM.

B4: hybrid construct A3D1 (VHH)
VHH: EVQLVESGGGLVQAGDSLRLSCTASGREGTTTVGWFRQAPGKEREFVAAIRWTDSRTPHTDSRFSISADSAKNTVYLQMNSLKPEDTAVYYCAADTWNSVVTGTAADWGQGTQVTVSS
As to B4, the binding result is “no binding”.

B5: hybrid antibody A3C8 (VHH)
VHH: EVQLVESGGGLVQAGDSLRLSCTASGRTLGDYGVAWFRQAPGKEREFVSVISRSTIITDYADSVRGRFSISADSAKNTVYLQMNSLKPEDTAVYYCAVIANPVYATSRNSDDYGHWGQGTQVTVSS
Take B5: the binding result is listed as “no binding”.

B6: hybrid DAD (VHH)
VHH: EVQLQASGGGLVQPGGSLRLACQYSGREGTTTVGWFRQSPGKEREFVAAISAAPGTAYYAFYADSVRGRFTTSSDNFKKTAYLQMNGLKPEDTALYYCTEDTWNSVVTGTAADWSQGTQVTVSS
With B6, the dissociation constant Kd amounted to 20 nM.

B7: hybrid DDA (VHH)
VHH: EVQLQASGGGLVQPGGSLRLACQYSGREGTTTVGWFRQSPGKEREFVAAIRWTDSRTPHTDSRFTTSSDNFKKTAYLQMNGLKPEDTALYYCTEDLKMQVAAYMNQRSVDYWSQGTQVTVSS
As to B7, the binding result is recorded as “no binding”.

B8: hybrid ADD (VHH)
VHH: EVQLQASGGGLVQPGGSLRLACQYSGRTFSRAVMGWFRQSPGKEREFVAAIRWTDSRTPHTDSRFTTSSDNFKKTAYLQMNGLKPEDTALYYCTEDTWNSVVTGTAADWSQGTQVTVSS
For B8, the binding result is given as “no binding”.

In general, Kd refers to the concentration at which binding is half-saturated. Lower therefore signals higher affinity.
